Source: paper PMC5300038

Molecular target: 14-3-3ε (UniProt P62258)
Assay: anti-Flag IP, anti-14-3-3ε Western blot
Details: reference: wild type; sites S274,S299

binding against the reference: weaker
Substance: PITPNC1 (from UniProt Q9UKF7) S274/299A
